In FireProtDB (doi:10.1016/s0022-2836(03)00043-3):

B1: Cyclin-dependent kinase inhibitor 2A, P42771 (parent)
chain: MEPAAGSSMEPSADWLATAAARGRVEEVRALLEAGALPNAPNSYGRRPIQVMMMGSARVAELLLLHGAEPNCADPATLTRPVHDAAREGFLDTLVVLHRAGARLDVRDAWGRLPVDLAEELGHRDVARYLRAAAGGTRGSNHARIDAAEGPSDIPD

Variants of: B1
Conditions: Homo sapiens, pH 8.5, CD, Tris 10 mM, reversible: yes, structure 1A5E, whole UniProt chain shown; for ddG of mutation (higher = less stable) / denaturant m value / denaturant midpoint (higher = more stable) / unfolding free energy: 20 °C, Urea; for Tm / change of melting temperature, mutant - wild type (higher = more stable): Thermal

For W15D, the “ddG of mutation (higher = less stable)” value was -0.17 kcal/mol, the denaturant m value was 1.74 kcal/mol/M and the “denaturant midpoint (higher = more stable)” value (“denaturant midpoint” for short) was 2.1 M. It also gave an unfolding free energy of 3.52 kcal/mol.

With A73E the Tm was 46.2 °C and the “change of melting temperature, mutant - wild type (higher = more stable)” value (from here on “change of melting temperature, mutant”) was 0.2 °C.

In the case of L65K, the Tm is reported as 47.2 °C and the “change of melting temperature, mutant” value is reported as 1.2 °C.

With R124D the Tm was 45.6 °C and the “change of melting temperature, mutant” value was -0.4 °C.

In the case of W15D L37S L121R, the “ddG of mutation (higher = less stable)” value is reported as -1.42 kcal/mol, the denaturant m value is reported as 1.56 kcal/mol/M and the “denaturant midpoint” value is reported as 2.8 M. It also gave an unfolding free energy of 4.77 kcal/mol.

With R128E the Tm was 47.6 °C and the “change of melting temperature, mutant” value was 1.6 °C.

For L37S, the “ddG of mutation (higher = less stable)” value was -0.71 kcal/mol, the denaturant m value was 1.82 kcal/mol/M and the “denaturant midpoint” value was 2.4 M. For the same variant, the unfolding free energy was 4.05 kcal/mol, the Tm was 50.3 °C and the “change of melting temperature, mutant” value was 4.3 °C.

For T18R, the Tm was 45 °C and the “change of melting temperature, mutant” value was -1 °C.

With L121R the “ddG of mutation (higher = less stable)” value was -0.66 kcal/mol, the denaturant m value was 1.61 kcal/mol/M and the “denaturant midpoint” value was 2.4 M. For the same variant, the unfolding free energy was 4 kcal/mol, the Tm was 50.4 °C and the “change of melting temperature, mutant” value was 4.4 °C.

For V95K, the Tm was 47 °C and the “change of melting temperature, mutant” value was 1 °C.
